Literature values, collected in publication PMC3061978.

Target: methylamine dehydrogenase (MADH) (Paracoccus denitrificans) (UniProt P22619)
Experiment: kinetics

Chain of UniProt P22619 (P22619 58-188, chain 1 of 2): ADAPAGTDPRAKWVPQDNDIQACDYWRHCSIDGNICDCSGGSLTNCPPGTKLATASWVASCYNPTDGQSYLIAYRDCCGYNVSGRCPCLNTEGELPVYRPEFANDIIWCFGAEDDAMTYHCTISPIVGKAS
Chain of UniProt P22619 (P29894 29-417, chain 2 of 2, further chain): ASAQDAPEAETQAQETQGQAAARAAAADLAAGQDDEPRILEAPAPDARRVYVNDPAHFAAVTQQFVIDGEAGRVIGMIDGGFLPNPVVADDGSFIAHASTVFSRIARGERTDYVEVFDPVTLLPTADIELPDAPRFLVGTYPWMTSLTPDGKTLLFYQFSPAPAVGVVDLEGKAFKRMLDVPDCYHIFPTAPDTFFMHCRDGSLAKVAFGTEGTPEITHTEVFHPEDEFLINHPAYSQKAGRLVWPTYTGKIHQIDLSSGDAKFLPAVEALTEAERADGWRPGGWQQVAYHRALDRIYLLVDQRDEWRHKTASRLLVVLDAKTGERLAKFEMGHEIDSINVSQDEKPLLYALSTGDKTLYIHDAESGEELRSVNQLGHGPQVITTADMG

MauG (from UniProt Q51658)
Kd: 10.1 µM
